Data published in a protein production outcome set (Wang et al. 2014).

experiment: label from the status in PepcDB records

Q: For “MIRIDSVTKRYPDGTVAVDRLSLEIPDRSITVLVGPSGCGKTTTLRMINRMVEPSEGTILLDGADITKQPVNTLRRSMGYVIQNAGLFQHRTIVDNIATVPRMLGWGKERARSRARELMERVGLDASLARRYPYQLSGGQQQRVGVARALASDPPVLLMDEPFSAVDPVVRKGLQEELLRIQDELGKTIVFVTHDIDEAIRLGTMVAVMRTGGHLAQFAPPAELLSAPADAFVEDFLGTDRGIRRLSFFPSAGLELLTTPVVAIDSTAEQIAARGTPDVPYLLVTDVDGKALGWSEPKDLTAGKVVPERLLPYGRPFESGKDSLRAALDCAVLSPTGWAVAVDGTGRVVGVVSQETIGEAIRGAHAERRKADLAGLEHHHHHH”, which protein production is on record?
A: not failed

Q: For “MIRISIALLDHQEQLPNMFENLSEDLRKALNEAGYIKPTRVQEVVIPELMNGKSVIVQAKTGSGKTAAYVIPILERNSTALILSPTRELATQILDEIKKLGKYKQIDVSLIIGGMSYDDQRQSKIVVGTPGRLLDLWSKGKIDFSGYDFVIVDEADRMLDMGFIDDIRMILNHCNAKIAGFFSATIPDEIMTLAKEFSKDLREIVLDEYKPVEEVKQKFVKVRNDWNDKVSKLLEEINGEKILVFARTRDRARKLYYLLKGKGVNVGLLSGDMPQSVRLKNFYGFKKGKYNVLVATDLASRGIDIIDVNKVINFDIPRDVETYIHRVGRTGRMGRVGQAITFYTFREADMIKRINNLLAI”, which protein production is on record?
A: failed

Q: Which protein production does the source give for “MIRKWDTKDTAPLLALWLDSTIHAHPFISESYWRDSVAVVRDVYLPAASTWVWEQDGELKGFVSVLDSRFVGALFVAPGATRQGIGRALLDEVKQHYAWLSLEVYQKNESAVSFYHAQGFRIEDCAWQDDTQHPTWIMRWPA” here?
A: not failed

Q: For “MIRMTVKVPHPLRVVAVSGGMQRPSKSVALAEHLLALIAEQLPCERHLVEIGALAPQFAGAPWRSHLPGSVEQALALVEQADVLVVATPVYRGSFTGLFKHFFDFIDQDALVDTPVLLAATGGSDRHALMIDHQLRPLFSFFQARTLPLGVYATDRDFLDYRVHSQALAERASLAVQRALPLIELTRHARSITAQNVAAA”, which protein production is on record?
A: failed

Q: Which protein production does the source give for “MIRPEYLRVLRKIYDRLKNEKVNWVVTGSLSFALQGVPVEVHDIDIQTDEEGAYEIERIFSEFVSKKVRFSSTEKICSHFGELIIDGIKVEIMGDIRKRLEDGTWEDPVDLNKYKRFVETHGMKIPVLSLEYEYQAYLKLGRVEKAETLRKWLNERKG” here?
A: not failed

Q: Which protein production does the source give for “MIRPTVQENFSRYADCIAACNAAAAACLKCAAACLEEPDTRKMTRCIALDMDCAGIANLAASYMLRNSEFAPLVCEDCAEVCKWCKEECERYDHWHCQECAKACAACMEMCLKMTA” here?
A: failed

Q: With “MIRVLFAFIILLLSVFLGIQLNKDPGYVLIAINNWTIETTLWVSVFGLFFLFFLIYGLVQFCNKITRMPGMVNKWHSRRLAQKAQATTRKGLIEYSEGYWQKAKNHLIQALPNTDTPLLNYLTAARAAQKMGDSKLRDHYLREAQQSMPEAKIAVELTQAQLQLANHQWEQALATLKHLQDLAPRHPYVLKLLMNLYEEIKDWQQLIALLPDLKKNHIISDQAFEQLQKNTYLQAMIDLAKHNQSDGITKLYQTLPKTLVNDTAITAEYARFLIRNQDYDQAEYHLKRCLRKELDNRLIELYSLLPCEENQLLFAESLLKKNPHSAALYLCLGRMCLSRHLWGKAKHYLEQSIELNPTPVAFIELGKLHEKLNDPLSSGSCYKKGLELITKDELS” as the sequence, how does the protein production read?
A: failed

Q: For “MISAHCNLRLLCSSDSSASASQVAGTTEVVENLVTNDNSPNIPEAIDRLFSDIANINRESMAEIADIQIEEMAVNLWNWALTIGGGWLVNEEQKIRLHYVACKLLSMCEASFASEQSIQRLIMMNMRIGKEWLDAGNFLIADECFQAAVASLEQLYVKLIQRSSPEADLTMEKITVESDHFRVLSYQAESAVAQGDFQRASMCVLQCKDMLMRLPQMTSSLHHLCYNFGVETQKNNKYEESSFWLSQSYDIGKMDKKSTGPEMLAKVLRLLATNYLDWDDTKYYDKALNAVNLANKEHLSSPGLFLKMKILLKGETSNEELLEAVMEILHLDMPLDFCLNIAKLLMDHERESVGFHFLTIIHERFKSSENIGKVLILHTDMLLQRKEELLAKEKIEEIFLAHQTGRQLTAESMNWLHNILWRQAASSFEVQNYTDALQWYYYSLRFYSTDEMDLDFTKLQRNMACCYLNLQQLDKAKEAVAEAERHDPRNVFTQFYIFKIAVIEGNSERALQAIITLENILTDEESEDNDLVAERGSPTMLLSLAAQFALENGQQIVAEKALEYLAQHSEDQEQVLTAVKCLLRFLLPKIAEMPESEDKKKEMDRLLTCLNRAFVKLSQPFGEEALSLESRANEAQWFRKTAWNLAVQCDKDPVMMREFFILSYKMSQFCPSDQVILIARKTCLLMAVAVDLEQGRKASTAFEQTMFLSRALEEIQTCNDIHNFLKQTGTFSNDSCEKLLLLYEFEVRAKLNDPLLESFLESVWELPHLETKTFETIAIIAMEKPAHYPLIALKALKKALLLYKKEEPIDISQYSKCMHNLVNLSVPDGASNVELCPLEEVWGYFEDALSHISRTKDYPEMEILWLMVKSWNTGVLMFSRSKYASAEKWCGLALRFLNHLTSFKESYETQMNMLYSQLVEALSNNKGPVFHEHGYWSKSD”, which protein production is on record?
A: failed

Q: With “MISFLLSLVLLIVGYFTYGKFVDKTFGTNDSIETPAESMADGVDYVPMSWPRIFLIQFLNIAGLGPIFGAIAGALWGPVAFLWIVFGCIFAGAVHDYFTGVLSIRNKGVSVAELVGKYLGEIPRKIMVIFSVVLLILVGVVFLTGPADLLKTLTGIDRDIFIVIIVVYYIAATVLPVDKVIGKIYPIFGLCLLIMAVGIGAGIVIEGYNIPEIQLANFHPEGTPIFPFLFITIACGAISGFHATQSPIMARCVKKESEARKVFYGAMIAEGVIALVWAAAAMSFFGDTNGLQEILKAGGPATVVNTISNTVMGKVGAVLAILGVVACPISSGDTAFRSARLTIADAFKLKQDKVIDRFKIAIPLFVVGIALTFIDFGIIWRYFSWSNQTLAMIMLWAASAYMLKAHNNYWITLVPAVFMSAVTCSYILQAPEGFRLNATFSNIAGVVFALVLFGIFIKYCKKENNENCEIVEIEEVKEVIKNK” as the sequence, how does the protein production read?
A: failed

Q: With “MISILLFALTSFLIGLSGAMAPGPLLTVTVSDSIRRGFRAGPLLVAGHVLGEALLVTLILMGLGYILRSGPAPAILGTAGGAVLIWMGILGFRDSEDTENIPEGGSILRGAIISFANPYFFLWWGAVGAALMYRGLELAGVLGLLAFLAGHWSSDLTWYSLVSFLSSRKSFRMNGRPYKIVMMILSLFLILFGVYFLIESLKAISGYS” as the sequence, how does the protein production read?
A: failed

Q: With “MISIVIPLYNQVAYTQLCVQSLRRAGLNGVDVLLIDNGSTDGTAEYLKSCSDLRVIRNRENLGCAGAWNQGVRETTSEWVMILNNDVVVSPGWLDGLLEAAGKEGLDVVSPAIREGEYNYDIEGYSQEFVGRMGDVVRRGVADGICFMVRRRVFEVVGLFDENFRIGQFEDADFFRRARNAGFRLGTTGRSFIHHFGSVTQDAIRKNRPERPYVAENRAYFREKWQLTRGRRLIERWRRKLREFAWQKCERMFHGHTLKEKWLGGRLRYYLEHHHHHH” as the sequence, how does the protein production read?
A: failed

Q: With “MISKAISAQCRHLHRAAVLVAVMSALAATGCSKKEAPQAPAPSAGTPQAGAPAAMPEGMSGQQQTAMGRAIFNKRCASCHGTDGNGAGSRSGPALDQAQFKYGRTPEAIRESIVKGRPNGMPAFGAAFQEIEIDTLVGYVMGLTKQ” as the sequence, how does the protein production read?
A: failed

Q: With “MISLQFFITAFVVVLAPGTGVIYTLAIGLGRGRSAAAWAALGCTLGILPHLAAAILGLAAILHSSALLFQLVKAAGVAYLLYLAWQALRSDGALAIRSEHSHQPGWRIAWRGALINILNPKLSVFFLALLPPFLSGNPASATAEMSLLGLVFMAMTFAVFLLYGAFASAARTYLMQSERALRWMGRGFALVFAGLAARLAMERA” as the sequence, how does the protein production read?
A: failed

Q: Which protein production does the source give for “MISQASRFAPDQPPKLSCEYLTERVRALFGPHPFASQMSGDQVASLLPEYLAMSQAFPYLQAGSQRDLIFDAMHQNRDIGRDIELTSVVANFICWDETGGHGGILRGGKAALPDILLTENFHSNLLRKDAARLLGRAIRPNYSDRTKQYLHSLYAGLSSKDPLVRCAYMVAFELHAADMIQSLWTTLVKTFKARPDDLEYFRGHVGGEDPAEKYHGEMTGRLIGELVQPGLNDRFLNEFGRAYRLSVQWCRDLLGTAARTGDDHSEMQHHGRCHCGAIKFYVNAPRELSAVRCNCSICQMSGFVHLLVPGDKLRIECGEEFLTTYQFNKNIARHTFCRLCGVKPFYRPRSNPSGYSVNIRCLDRKTIEHLRISEFDGAHWEQAFLSMQQDPESCFEDQRSELEWRAQ” here?
A: failed

Q: With “MISTWHKNNNSPRLTVSARIVAKRQNTTYHNQPNAGDTSGAHGYHTTSSTTYYVTFQVESGDRIEMSVSGSEYGKLTEGDEGKLTFQGTRYLQFNMENLEHHHHHH” as the sequence, how does the protein production read?
A: failed

Q: Which protein production does the source give for “MITGKRFKFILLTFIFAAGLFFTQAGILFAQDKPDALKLYRQGRSLDSIGRREDARAAYLSAIEICRNELKVNSKNMDSYAVYTWCLFRLGRYKDTELVCSDALKIGRDARIIETLAEAQFFLGNYKDSLRNMEMYIEMAPNGERISVAHFFVGEIYRNTKKYHKADIAYSISVHLEPSNSLWWYRLGIVREAAGEKEGAIAAYQTAVKLRPEFKEAAEALKRVKI” here?
A: failed

Q: Which protein production does the source give for “MITIKKQEIVKLEDVLHLYQAVGWTNYTHQTEMLEQALSHSLVIYLALDGDAVVGLIRLVGDGFSSVFVQDLIVLPSYQRQGIGSSLMKEALGNFKEAYQVQLATEETEKNVGFYRSMGFEILSTYDCTGMIWINREK” here?
A: not failed

Q: Which protein production does the source give for “MITKQDTIYEWIQNGQLEDALKALFQNIEEEPNTIENYINAGIVLADINEIEKAERFFQRAITIDDKNGAVYYNLANLYYDQGKYRDAIKLYQLASKYNMDKIDTNYMIGMSFNQLDAPTESLPYFMTAAELDKNQDAEVQFQYGLALCHLEMFNQAINQLKIVLDIDSKHVDALYNLGLATYMDTEDLDLAMSYFDKAISIDPNHLLSQHAKKTFEAIKNEEE” here?
A: failed

Q: Which protein production does the source give for “MITLARTLLLFACLLPSIHVKAEPSLQPHYKIATEADDVVTRVLFDAVSTEFGVSVEYINYASFDAILDAVANEDADFAANITYTDTRAERFSYSRPTNIEYTYLYGLSDSTLDDISRVGVPQNTIYSELIKQYHPELKQVPYKGHNEAVRLLQTGLVDGVVDAINQLKPMLLEGFDAKMLNDQISIKPVSIISKKGHHLEELDTFASFIHGEAVQKQLREQIALYQFELRRSALRDAIKLLPVDLKEPIRIKMESIFPYVVYNPDGTVQGMTADIVLQSCEILDLNCVIISEPNESWESMYRQFMKGEFDILAPLTVSRERHEFSYFPRPHYSPASVMVKRLGYKPNTYSHVSQLISERIGVVKDDFFDQMMTQLLPLKELERFNTQHDLIEALLKGEVDYIPMDTAMLNHFLRLSELVPIEQDTAIGEFYSSQLSIGLVANERGAMLAPYFSRAIAMLGVDKIVAQYDLRPDWRTALEYEVRLATQTQAVFLFVLVLAICVSLYLYRQSNTDNLTGLRNRRSLQVKYRQGVNKDLAILYLDINHFKQINDTYGHLAGDEVLQLLSLKIHRVWSGRSYRIGGDEFILLGYPTQIELSRAVQELSRLDVTDKLCAELKTVTISVGVSEKRKQHMSLEQALHLADEDMYVSKHSSRHYSGSSNYLVQS” here?
A: failed

Q: Which protein production does the source give for “MITLEKEKVTVNPDIKVIKRDGRMVTFDSSKIYEAILKASETITPITPLIETKLEEIANRVVAEINDRFSHNIKIYEIQSIVEHELLEANEYAIAQEYINYRTKRDFERSQATDINFTINKLV” here?
A: failed
